Source: the supplement of paper PMC12042874
± gives the uncertainty stated by the source.

Assay: amyloid nucleation score (Sup35N fusion, yeast selection) (log enrichment); library NNK3; higher = more nucleation; inactive = no reads after selection
Summary of the method: (§1)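 Sup35N fusions to peptides of 20 random codons were expressed in psi-negative yeast, induced 24 hours with 100 μM copper sulfate, and grown 7 days at 30°C on medium lacking adenine and uracil. Input and output plasmid inserts were sequenced by Illumina. The nucleation score is the DiMSum log enrichment of output over input reads, centred on the mode score of non-aggregating sequences. Sequences with under 100 input reads were excluded.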

Row | Substance | amyloid nucleation score
1 | YHCSLQIFVLNSWMSSYKWS | 1.86 ± 0.098
2 | YHGVLRWSKSTFAAHYPVTA | inactive
3 | YHLDIKNFHTLCWGPYFTSM | 0.789 ± 0.25
4 | YHRRLSTVLMGCMNRGLNYL | inactive
5 | YIAGFQFCSIIFQRRTVQLL | inactive
6 | YICVKYEVYNFTFYFVSGFW | inactive
7 | YIFGNFRHTSGGYCVLSVLK | inactive
8 | YIHIY | inactive
9 | YINSATRFDKFM | inactive
10 | YITMNVHSRDASVRWLDF | inactive
11 | YIVST | inactive
12 | YIWLKGNIRRSQWLLSLPFM | inactive
13 | YIYEEASK | inactive
14 | YIYICLVFMSRCTKLYIELG | inactive
15 | YKFSVTTL | inactive
16 | YKGDKFVRCSVW | inactive
17 | YKRGFMKRYANAEASFMSYW | inactive
18 | YKTYKYERLCIFVLSQRESI | inactive
19 | YKWSLTTRRTVRHLRED | inactive
20 | YLAPHMSATVVLDNEFGPES | inactive
21 | YLDFVFGLRTRDNYLWVRPT | inactive
22 | YLDSSSS | inactive
23 | YLDVPTCDLSMPCYDINNNL | inactive
24 | YLFTFVWQTTSLINVIVALI | inactive
25 | YLIGLRCWCSL | inactive

Row | Substance | amyloid nucleation score
26 | YLKWTNVVKMGHSKSSTE | 1.29 ± 0.1
27 | YLLLARIEKRFGFFVISDPG | inactive
28 | YLPFFEWRVQGRVFEVSMYY | inactive
29 | YLPSSSEFR | inactive
30 | YLSDVLSLWCSVQIWSGLYC | inactive
31 | YLSVPVF | inactive
32 | YLVFFA | inactive
33 | YLVTWWMLSHKLTHMCFSGR | -0.024 ± 0.69
34 | YMAAVQSTKRNFMHCNKVGS | inactive
35 | YMHGVWRWVVYRIFLYGRQA | inactive
36 | YMLLSVDILSYMPMTVVAEQ | inactive
37 | YMLSGPRWFV | inactive
38 | YMQQSR | inactive
39 | YMTGNSSSWSTFGWDKRFGI | 1.03 ± 0.09
40 | YMYFKVDVDWRSPGMTARLL | inactive
41 | YNCRTLNCNYQVYYFVFLSD | 3.15 ± 0.062
42 | YNDWQKEMCIITICVL | inactive
43 | YNGYALRF | inactive
44 | YNNVCSEAEWS | inactive
45 | YNYLV | inactive
46 | YPGMQEYVLGWNVWREK | inactive
47 | YPKRMCDRHS | inactive
48 | YQDLP | inactive
49 | YQNGLARWTWKYRNVINVLS | inactive
50 | YQWNIMLKIDCSIDVVVVSN | 0.827 ± 0.27

Row | Substance | amyloid nucleation score
51 | YQYCSISKHVFEWYGTSWMG | inactive
52 | YQYPVVDKRMYIFTTMFYFT | 2.57 ± 0.082
53 | YRFLMLITYYFCIV | 2.11 ± 0.071
54 | YRFYSNNPTRCS | inactive
55 | YRGPVGIDSGVRS | inactive
56 | YRGVDLYVGVKLIRTYRVVR | inactive
57 | YRILRL | inactive
58 | YRLCRGFNSFI | inactive
59 | YRLVSLYFVLLFFGA | inactive
60 | YRNNAFPSEMHPIGRLEYAV | 0.456 ± 0.15
61 | YRNVGHVCFDVEYPRVLFFA | inactive
62 | YRPSIRLTGCLSSLYTLFYG | 1.92 ± 0.062
63 | YRSKNFMIQRWTRVVLRAWM | inactive
64 | YRSNEFISD | inactive
65 | YRVKPFKWKYARRRLVIRWV | inactive
66 | YRWGISLIEMEQGGVVF | inactive
67 | YRYRACSSNFYVTVFGQLHV | 2.33 ± 0.063
68 | YSCNKCVDEMRVRRGIERGV | inactive
69 | YSCVEDSGCVCKNPLVISEF | inactive
70 | YSESIFIV | inactive
71 | YSGGKGSGRELRYTLLVRGT | inactive
72 | YSGMGCFSAWSMW | inactive
73 | YSNNILFAQEISQPYGHMFP | inactive
74 | YSSSC | inactive
75 | YSSSFIWMAYESIYFFLIFI | inactive

Row | Substance | amyloid nucleation score
76 | YSVCVNAWGLSTLSTLWCTY | inactive
77 | YSVLLCVALRLVNNVA | inactive
78 | YSVLLLLDSYGAWSGAGGE | inactive
79 | YSVSEIRKSHLWITINMAVF | inactive
80 | YSWDILSLLRGKETQACICY | inactive
81 | YSWSMLL | 0.077 ± 0.54
82 | YTALHWLYFVSCKFDEKVQW | inactive
83 | YTDWGYDLRNGAGNGYIT | inactive
84 | YTILVCYSAGVAYYNKGLVR | inactive
85 | YTLGHRTPMLIYDVAGRPNY | inactive
86 | YTRNKQDIWGGNHGSRCQNG | inactive
87 | YTVGCSYMVWVVFNFFYFSE | 1 ± 0.14
88 | YTVILRVRGSMSAMQSMKFS | inactive
89 | YTVTASQTYFYSCRDGFAFS | inactive
90 | YTWYCFCRC | 2.44 ± 0.055
91 | YVCGQSG | inactive
92 | YVDIY | inactive
93 | YVEKVYYCSVRLRYAFLDFD | inactive
94 | YVELSTYCSRWLVLIVDYLE | inactive
95 | YVFGKLSAFFFVRFNLQGLL | inactive
96 | YVFKYVEEVSHFSLFLWTKS | inactive
97 | YVFVRS | inactive
98 | YVGFLSSCFF | 1.19 ± 0.14
99 | YVITQQSSFSVTLYSSINFC | 0.625 ± 0.33
100 | YVIVLNR | 2.3 ± 0.069

Row | Substance | amyloid nucleation score
101 | YVIVYS | inactive
102 | YVMHWSVAEVLRSLCVNHVR | inactive
103 | YVNFFVKVSV | inactive
104 | YVPIRSFVGEVLGSGDR | 0.157 ± 0.59
105 | YVQIGFILIFISNYLSCESA | 1.8 ± 0.071
106 | YVSSAILRNRVLCHCYFTML | inactive
107 | YVTSNSVDRTIKCSAFILIC | inactive
108 | YVWIDTMGL | inactive
109 | YWFFIIIFNNIHSADGFIVS | inactive
110 | YWPIHSSTAETDVTVRTRSY | 1.01 ± 0.14
111 | YWSNPYSYKFYEFMIHTALQ | inactive
112 | YWVRNVLNS | inactive
113 | YYGFYTNYFMCGV | 2.77 ± 0.062
114 | YYGLAVWSERNVRWMGEGEA | inactive
115 | YYGVDHLLNWIPFACTARLG | inactive
116 | YYIIWRFQGIVLKYGTALTF | inactive
117 | YYLCLYLSPLLL | 1.28 ± 0.11
118 | YYMLWSKCCEYSAHRN | inactive
119 | YYSWCRFTNDYSCCYRAFFA | inactive
120 | YYTFSVHSYGEFMRCLFIQH | inactive
121 | YYTGCHSSVSC | inactive
122 | YYVVGQPAASQK | inactive
123 | YYYAFEFPFSYHERSALYYC | inactive

Assay: amyloid nucleation score (Sup35N fusion, yeast selection) (log enrichment); library NNK2; higher = more nucleation; inactive = no reads after selection
Summary of the method: as §1

Row | Substance | amyloid nucleation score
124 | AADKAICPVGGNTGHRSLGS | 0.691 ± 0.35
125 | AADRFVAMKICVLCHLKQSL | 1.88 ± 0.25
126 | AALCRMFWTAISYWCEWSLG | 0.157 ± 0.55
127 | AANDMPMNSPIFSLGSDMPH | 1.01 ± 0.48
128 | AANRPGTSC | 0.767 ± 0.74
129 | AASRWTWC | 1.5 ± 0.16
130 | ACDVNWLMNTIHQNNCCFAH | -0.716 ± 1.1
131 | ACILSVYFS | 2.12 ± 0.15
132 | ADCVSICVSYRRFHLAKYR | 2.73 ± 0.11
133 | ADHVDAYSFRDNDLSYQVYL | 1.41 ± 0.46
134 | ADIAYFRLVMLKHTIYPVHM | 1.82 ± 0.27
135 | ADNFICIIETYSYILVWRSS | -0.552 ± 0.78
136 | ADSCKVMKWDRRPLEDFNWC | -0.041 ± 0.19
137 | ADSVLYNCVCRFSSVPQVLR | -0.263 ± 0.31
138 | AEANLNFGLMDGAMSVKRAE | -0.329 ± 0.55
139 | AESWVNYRGRDV | 0.472 ± 0.8
140 | AETTFNIENDKTYIIYDCAE | -0.161 ± 0.39
141 | AEWLINGISDGLDCVSFSNS | inactive
142 | AEYRNDMAIEVSSSYCCGY | 3.43 ± 0.082

Row | Substance | amyloid nucleation score
143 | AFGNNDDLGARRYGMATPGR | 0.746 ± 0.62
144 | AFLRFMKRRQLNLLKYAFCC | 4.01 ± 0.084
145 | AFNCT | -0.684 ± 0.78
146 | AFPLRTVISGN | 0.484 ± 0.8
147 | AFPPE | -0.726 ± 1.1
148 | AFPTKCNVRSMSMHRLLLLC | inactive
149 | AFRFWFHGSMLVAHLSSWYY | 2.88 ± 0.083
150 | AFSLCFRYYLPRVNASG | -0.147 ± 1.1
151 | AFSMRVGDFEIHRFSVVFRR | -0.247 ± 0.53
152 | AFSSLFWIWIPSNMRSQVLK | 0.124 ± 0.42
153 | AFTACRYMVSPFFSLMFSTS | 0.265 ± 1.1
154 | AFVLRVNYNLNTRGYVSLFK | 2.14 ± 0.14
155 | AFWLL | 1.81 ± 0.093
156 | AGDTLWNGGMVEWFVWRLPG | 0.178 ± 0.74
157 | AGIFQNSRRNPYRVYMMSVY | 3.31 ± 0.06
158 | AGMGRSVWSKRFRDISRVSS | 0.511 ± 0.56
159 | AGSLRR | 1.51 ± 0.41
160 | AGVCCSVSNILWKCTSSSNG | 9.932 ± 0.023
161 | AGWRLVTQDRLSLLNQTDVF | 1.05 ± 0.36
